Experimental data from article PMC5643311.

How the values were obtained:
Test in all cases: co-immunoprecipitation, blot
Settings in all cases: reference: wild type, EGF; sites S303
[1] = biological target: RelA/p65 (UniProt Q04206)
[2] = biological target: RelA/p65 (UniProt Q04206); remark: listed apart in the source
[3] = biological target: RelA/p65 (UniProt Q04206); remark: listed apart in the source

Measured: binding against the reference

MIIP (migration and invasion inhibitory protein) (from UniProt Q5JXC2) S303A, EGF
weaker: all assays above
